Reference: patent US20220204611A1

Target: human TREM2 on cells (human) (UniProt Q9NZC2)
Test: cell-based or functional assay

human TREM2 on cells (human), sequence (Q9NZC2 19-230): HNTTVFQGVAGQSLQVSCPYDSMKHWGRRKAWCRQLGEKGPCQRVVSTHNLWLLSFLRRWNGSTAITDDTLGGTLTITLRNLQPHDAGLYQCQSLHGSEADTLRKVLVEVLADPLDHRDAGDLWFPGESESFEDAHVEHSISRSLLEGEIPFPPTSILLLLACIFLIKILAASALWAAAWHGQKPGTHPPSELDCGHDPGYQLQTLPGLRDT

rat anti-human/mouse TREM2 antibody mAb17291 (Rat IgG2b Clone #237920, R&D Systems)
Emax (% maximum activation compared to RnD antibody): 100% | pSyk EC50, HEK293T human TREM2/DAP12: 0.5 nM | pSyk EC50, differentiated THP-1 cells: 0.383 nM | pSyk Emax, HEK293T human TREM2/DAP12: 13.8
